In assay [1] the target is T1, human CLDN6 protein (human, UniProt P56747 1-220).
T1 sequence (looked up): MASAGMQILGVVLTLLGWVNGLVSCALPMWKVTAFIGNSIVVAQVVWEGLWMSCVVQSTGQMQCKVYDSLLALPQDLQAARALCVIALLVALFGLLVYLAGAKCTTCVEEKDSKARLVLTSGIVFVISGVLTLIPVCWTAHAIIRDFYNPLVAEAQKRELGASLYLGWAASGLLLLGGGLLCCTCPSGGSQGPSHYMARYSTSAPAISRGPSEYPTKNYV
The experiment in a line: flow cytometry on cells overexpressing human CLDN6; 10 µg/mL control antibody, Alexa 647 anti-mouse secondary; single point. (In flow cytometry, cells or beads pass a laser one at a time.)

Assay [2] addresses T2, human CLDN4 protein (human, UniProt O14493 1-209).
T2 sequence (looked up): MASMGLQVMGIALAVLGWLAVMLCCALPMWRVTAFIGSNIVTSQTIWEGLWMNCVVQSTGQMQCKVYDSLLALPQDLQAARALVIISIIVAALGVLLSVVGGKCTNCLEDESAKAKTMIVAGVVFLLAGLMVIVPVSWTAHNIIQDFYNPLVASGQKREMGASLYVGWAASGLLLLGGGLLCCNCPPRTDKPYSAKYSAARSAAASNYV
The experiment in a line: flow cytometry on cells overexpressing human CLDN4; 10 µg/mL control antibody, Alexa 647 anti-mouse secondary; single point.

For assay [3], the target named is T3, human CLDN9 protein (human, UniProt O95484 1-217).
T3 sequence (looked up): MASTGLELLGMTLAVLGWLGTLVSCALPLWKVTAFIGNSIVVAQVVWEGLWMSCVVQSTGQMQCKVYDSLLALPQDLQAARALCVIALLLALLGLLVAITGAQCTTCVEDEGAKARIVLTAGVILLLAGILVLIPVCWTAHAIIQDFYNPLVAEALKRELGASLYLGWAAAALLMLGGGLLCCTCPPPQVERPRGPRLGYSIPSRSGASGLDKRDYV
The experiment in a line: flow cytometry on cells overexpressing human CLDN9; 10 µg/mL control antibody, Alexa 647 anti-mouse secondary; single point.

Assay [4] concerns the target T3, human CLDN9 protein. The experiment in a line: flow cytometry on cells overexpressing human CLDN9; 10 µg/mL purified antibody, Alexa 647 anti-mouse secondary; single point.
The target in assay [5] is T2, human CLDN4 protein. The experiment in a line: flow cytometry on cells overexpressing human CLDN4; Alexa 647 anti-mouse secondary; single point.
For assay [6], the target named is T1, human CLDN6 protein. The experiment in a line: cell-based or functional assay.
In assay [7] the target is T3, human CLDN9 protein. The experiment in a line: flow cytometry on cells overexpressing human CLDN9; Alexa 647 anti-mouse secondary; single point.
Assay [8] concerns the target T1, human CLDN6 protein. The experiment in a line: cell-based or functional assay. This is another data set of the same source.
Assay [9] addresses T2, human CLDN4 protein. The experiment in a line: flow cytometry on cells overexpressing human CLDN4; 10 µg/mL purified antibody, Alexa 647 anti-mouse secondary; single point.
Assay [10] addresses T1, human CLDN6 protein. The experiment in a line: flow cytometry on cells overexpressing human CLDN6; 10 µg/mL purified antibody, Alexa 647 anti-mouse secondary; single point.
Assay [11] addresses T2, human CLDN4 protein. The experiment in a line: cell-based or functional assay.
In assay [12] the target is T3, human CLDN9 protein. The experiment in a line: cell-based or functional assay.

Turning to mIgG2b control (antibody), the figures for the MFI in the assay with human CLDN6 protein [1], with human CLDN4 protein [2] and with human CLDN9 protein [3] were 84, 73 and 81, respectively.

B1: SC27.108 mouse monoclonal anti-CLDN antibody (antibody, V domains shown)
VH: QVQMQQSGAELVRPGTSVKVSCKASGYAFTNYLIEWVKQRPGQGLEWIGLINPGSGGTNYNEKFKGKATLTADKSSTTAYMQLSSLTSDDSAVYFCARRSPLGSWIYYAYDGVAYWGQGTLVTVSA
VL: EIVLTQSPALMAASPGEKVTITCSVSSSISSSNLHWYQQKSGTSPKLWIYGTSNLASGVPVRFSGSGSGTSYSLTISNMEAEDAATYYCQQWSSYPHTFGGGTKLEIK
notes: also called SC27.109 (identical)
For B1, the MFI with human CLDN9 protein [4] was 86; with human CLDN4 protein [9], 88; with human CLDN6 protein [10], 99700. Also, the binding result with human CLDN4 protein [5] and in the assay with human CLDN9 protein [7] was “no binding (tested: 10 µg/mL)” each time. For the same molecule, in the assay with human CLDN6 protein [6], the “apparent IC50 of saporin-mediated cell killing” value stood at 100 nM. In addition, in the assay with human CLDN6 protein [8], the “apparent IC50 of killing of HEK-293T cells overexpressing hCLDN6; antibody titrated 0.15 to 1000 nM with anti-mouse IgG Fab-saporin, CellTiter-Glo” value amounted to 102 nM.

B2: SC27.201 mouse monoclonal anti-CLDN antibody (antibody, V domains shown)
VL: DIQMTQSSSSFSVSLGDRVTITCKASEDIYNRLAWYQQKPGNAPRLLISGATSLEAGVPSGFSGSGSGKDYTLSITSLQTEDVATYYCQQYWSTPPTFGGGTKLELK
V domain: EVQLQQSGPELVKPGASVKISCKTSGYTFTENIRHWVKQSRGKSLEWIGTINPNNGETRYNQKFKGKATLTVDKSSSTAYMELRSLTSEDSAVYYCTRGITKSPYGMDYWGQGTSITVSS
Consider B2, for which the MFI worked out at 7100 with human CLDN9 protein [4], 23100 in the assay with human CLDN4 protein [9] and 29900 in the assay with human CLDN6 protein [10]. Also, the “apparent IC50 of killing of HEK-293T cells overexpressing hCLDN4; antibody titrated 0.15 to 1000 nM with anti-mouse IgG Fab-saporin, CellTiter-Glo” value with human CLDN4 protein [11] turned out to be 69.7 nM. In the assay with human CLDN6 protein [8], the “apparent IC50 of killing of HEK-293T cells overexpressing hCLDN6; antibody titrated 0.15 to 1000 nM with anti-mouse IgG Fab-saporin, CellTiter-Glo” value came out at 48.2 nM. Besides, the “apparent IC50 of killing of HEK-293T cells overexpressing hCLDN9; antibody titrated 0.15 to 1000 nM with anti-mouse IgG Fab-saporin, CellTiter-Glo” value with human CLDN9 protein [12] was determined as 155 nM.

B3: SC27.203 (antibody, V domains shown)
VH: EVQLQQSGPELVKPGASVKISCKTSGYTFTENIIHWVKQSHGKSLEWIGGINPINGGTSYNQKFKGKATLTVDKSSSTAYMELRSLTSEDSAVYYCARGITTSPYAMDYWGQGTSVTVSS
VL: DIQMTQSSSSFSVSLGDRVTITCKASEDIYNRLAWYQQNPGNTPRLLMSGATSLETGVPSRFSGSGSGKDYTLSITSLQIEDVSTYYCQQYWSTPPTFGGGTRLEIK
notes: also called SC27.203 mouse monoclonal anti-CLDN antibody
Consider B3, for which the MFI with human CLDN9 protein [4] worked out at 587; with human CLDN4 protein [9], 2980; in the assay with human CLDN6 protein [10], 47400.

B4: SC27.104 mouse monoclonal anti-CLDN antibody (antibody, V domains shown)
VH: EVQLQQSGPELVKPGASVKISCKTSGYTFTEYTVHWVKQSHGKSLEWIGGVYPKNGDTTYNQKFRGKATLTVDKSSNTAYMELRSLTSEDSAVYYCTGKDGYDGFAYWGQGTLVTVSA
VL: DIQMTQSSSSFSVSLGDRVTITCKASEDIYNRLAWYQQKPGNAPRLLISGATSLETGVPSRFSGSGSGKDYTLSITSLQTEDVATYYCQQYWSNPPTFGGGTKLEIK
Consider B4, for which the MFI with human CLDN9 protein [4] worked out at 7230; with human CLDN4 protein [9], 22600; in the assay with human CLDN6 protein [10], 39200. The “apparent IC50 of killing of HEK-293T cells overexpressing hCLDN4; antibody titrated 0.15 to 1000 nM with anti-mouse IgG Fab-saporin, CellTiter-Glo” value in the assay with human CLDN4 protein [11] worked out at 969 nM. In addition, the “apparent IC50 of killing of HEK-293T cells overexpressing hCLDN6; antibody titrated 0.15 to 1000 nM with anti-mouse IgG Fab-saporin, CellTiter-Glo” value in the assay with human CLDN6 protein [8] was 284 nM.

B5: SC27.106 (antibody, V domains shown)
VH: EVQLQQSGPELVKPGASVKISCKTSGYTFTEYTMHWVKQSHGKSLEWIGGINPNNGGTNYNQKFKGKATLTVDKSSSTAYMELRSLTSEDSAVYYCARRLITYYAMDYWGQGTSVTVSS
VL: DIQMTQSSSSFSVSLGDRVTITCKASEDIYNRLAWYQQKPGNAPRLLICGATSLETGVPSRFSGSGSGKDYTLSITSLQTEDVATYYCQQYWSTPLTFGAGTKLELK
notes: also called SC27.106 mouse monoclonal anti-CLDN antibody
Consider B5, for which the MFI with human CLDN9 protein [4] worked out at 595; in the assay with human CLDN4 protein [9], 1990; in the assay with human CLDN6 protein [10] it was 55800.

B6: SC27.204 mouse monoclonal anti-CLDN antibody (antibody, V domains shown)
VH: EVKVLESGGGLVQPGGSLKLSCAASGFDFSRYWMSWVRQAPGKGLEWIGEINPDSSTINYTPSLKAKFIISRDNAKNTLYLQMSKVRSEDTALYYCTGPAYWGQGTLVTVSA
VL: DIVMTQSQKFMSTSVGDRVSVACKAGQNVGTSVAWYQQKPGHSPKSLIYSASYRYSGVPNRFTGSGSGTDFTLTISNVQSEDLADYFCQQYITYPYTFGGGTKLEII
Regarding B6, the MFI with human CLDN9 protein [4] was 23000; with human CLDN4 protein [9] it was 79; with human CLDN6 protein [10], 106000. Moreover, the binding result in the assay with human CLDN4 protein [5] is “no binding (tested: 10 µg/mL)”. Besides, the “apparent IC50 of killing of HEK-293T cells overexpressing hCLDN6; antibody titrated 0.15 to 1000 nM with anti-mouse IgG Fab-saporin, CellTiter-Glo” value with human CLDN6 protein [8] was determined as 25.2 nM. Also, the “apparent IC50 of killing of HEK-293T cells overexpressing hCLDN9; antibody titrated 0.15 to 1000 nM with anti-mouse IgG Fab-saporin, CellTiter-Glo” value with human CLDN9 protein [12] was 16.9 nM.

B7: SC27.105 mouse monoclonal anti-CLDN antibody (antibody, V domains shown)
VH: EVQLQQSGPELVKPGASVKISCKASGYSFTGYYMNWVKQSPEKSLEWIGEINPSTGSTTYNQKFKAKATLTVDKSSSTAYMQLKSLTSEDSAVYYCARRDYYYGSGFYAMDYWGQGTSVTVSS
VL: DVQMTQSPSSLSASLGERVSLTCQASQSVSNNLNWYQQTPGKAPRLLIYGASKLEDGVSSRFSGTGYGTDFTFTISSLEEEDVATYFCLQHRYLWTFGGGTKLEIK
Regarding B7, the MFI with human CLDN9 protein [4] is 80; with human CLDN4 protein [9] it was 69; with human CLDN6 protein [10], 83000. The binding result in the assay with human CLDN4 protein [5] and with human CLDN9 protein [7] was “no binding (tested: 10 µg/mL)” throughout. Further, the “apparent IC50 of killing of HEK-293T cells overexpressing hCLDN6; antibody titrated 0.15 to 1000 nM with anti-mouse IgG Fab-saporin, CellTiter-Glo” value with human CLDN6 protein [8] came to 235 nM.

Values taken from patent US20190077876A1 (AbbVie / Abbott, published 2019).
